{
  "source": "patent US20100184651",
  "test_system": "VIP-BH3 BID fusion protein",
  "sequence (chain, as listed by the source)": "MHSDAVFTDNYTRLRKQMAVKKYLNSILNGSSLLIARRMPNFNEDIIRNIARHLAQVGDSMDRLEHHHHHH",
  "data": [
    {"substance": "recombinant human cathepsin D", "values": [
      {"measurement": "cleavage of fusion protein by cathepsin D at ˜400:1 (w/w), followed by mass spectrometry", "value": "The first cleavage occurred at the linker by around 30 minutes of treatment with the protease"}
    ]}
  ]
}
